Laboratory results from article PMC6191538.

Target: Hoc- Soc- phage T4 particles (capsid) (phage T4) (UniProt P13332)
Test: co-sedimentation

Soc-PA (93 kDa)
BC50 (half-maximal binding concentration): 1140 nM
